Measurements published in patent US20180140673A1.

Legend:
[1] = target: FGF receptor/BKL complex on HEK293 cells overexpressing human beta-klotho (BKL) (human) (UniProt Q86Z14); test: cell-based or functional assay
[2] = target: FGFR1c receptor/BKL complex on differentiated mouse 3T3-L1 adipocytes (mouse) (UniProt P16092); test: cell-based or functional assay
Chain of FGFR1c receptor/BKL complex on differentiated mouse 3T3-L1 adipocytes (mouse) (P16092 22-822, chain 1 of 2): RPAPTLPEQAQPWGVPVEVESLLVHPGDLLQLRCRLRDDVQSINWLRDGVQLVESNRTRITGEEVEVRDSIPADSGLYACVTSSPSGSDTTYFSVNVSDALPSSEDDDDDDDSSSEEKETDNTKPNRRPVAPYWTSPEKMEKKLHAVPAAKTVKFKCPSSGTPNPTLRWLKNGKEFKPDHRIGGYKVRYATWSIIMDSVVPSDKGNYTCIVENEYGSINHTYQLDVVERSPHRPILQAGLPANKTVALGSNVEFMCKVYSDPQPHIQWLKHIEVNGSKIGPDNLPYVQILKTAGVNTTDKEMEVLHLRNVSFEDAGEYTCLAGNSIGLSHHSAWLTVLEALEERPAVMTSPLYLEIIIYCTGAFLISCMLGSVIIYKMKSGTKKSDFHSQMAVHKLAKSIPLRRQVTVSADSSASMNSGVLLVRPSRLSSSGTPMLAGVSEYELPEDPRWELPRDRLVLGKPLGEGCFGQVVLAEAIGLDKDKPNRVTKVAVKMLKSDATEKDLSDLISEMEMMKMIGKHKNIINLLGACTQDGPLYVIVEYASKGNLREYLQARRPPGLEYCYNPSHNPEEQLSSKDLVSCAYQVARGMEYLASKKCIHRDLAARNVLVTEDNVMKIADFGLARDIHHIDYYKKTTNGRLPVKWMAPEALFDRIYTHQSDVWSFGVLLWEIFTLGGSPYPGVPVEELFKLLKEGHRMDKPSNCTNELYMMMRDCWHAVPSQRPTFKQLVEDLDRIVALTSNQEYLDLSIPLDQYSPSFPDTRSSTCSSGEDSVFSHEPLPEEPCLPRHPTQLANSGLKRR
Chain of FGFR1c receptor/BKL complex on differentiated mouse 3T3-L1 adipocytes (mouse) (Q99N32 whole entry, chain 2 of 2, further chain): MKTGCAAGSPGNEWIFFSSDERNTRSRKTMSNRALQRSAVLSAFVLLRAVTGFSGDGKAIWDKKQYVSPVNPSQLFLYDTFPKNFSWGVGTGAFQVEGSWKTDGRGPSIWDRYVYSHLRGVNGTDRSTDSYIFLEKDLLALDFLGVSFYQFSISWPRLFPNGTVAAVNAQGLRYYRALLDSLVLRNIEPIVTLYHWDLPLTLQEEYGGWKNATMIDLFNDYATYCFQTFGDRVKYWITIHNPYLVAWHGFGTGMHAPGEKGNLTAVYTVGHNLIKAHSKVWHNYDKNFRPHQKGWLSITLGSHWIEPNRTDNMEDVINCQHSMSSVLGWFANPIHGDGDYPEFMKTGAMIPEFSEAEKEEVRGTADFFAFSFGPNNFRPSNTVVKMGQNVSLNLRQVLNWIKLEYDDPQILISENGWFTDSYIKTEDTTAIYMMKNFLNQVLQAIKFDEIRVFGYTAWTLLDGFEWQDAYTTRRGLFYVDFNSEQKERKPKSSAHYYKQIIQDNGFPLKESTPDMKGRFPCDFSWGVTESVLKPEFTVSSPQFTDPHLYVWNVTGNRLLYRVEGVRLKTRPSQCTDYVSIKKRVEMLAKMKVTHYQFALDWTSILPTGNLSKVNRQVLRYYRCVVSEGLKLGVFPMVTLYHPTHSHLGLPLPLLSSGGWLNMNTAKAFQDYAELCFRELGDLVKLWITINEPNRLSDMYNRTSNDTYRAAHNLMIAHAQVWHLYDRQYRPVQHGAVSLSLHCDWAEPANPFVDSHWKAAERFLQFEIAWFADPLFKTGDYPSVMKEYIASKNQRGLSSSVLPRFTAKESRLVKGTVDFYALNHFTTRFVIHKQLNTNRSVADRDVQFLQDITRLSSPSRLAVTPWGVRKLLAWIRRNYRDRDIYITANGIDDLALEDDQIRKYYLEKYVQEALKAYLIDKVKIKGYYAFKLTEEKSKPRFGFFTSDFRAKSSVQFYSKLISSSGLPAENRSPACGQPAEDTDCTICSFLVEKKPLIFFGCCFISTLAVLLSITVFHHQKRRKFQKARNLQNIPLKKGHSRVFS

Chain of S{Beta-181}-2-aminoethylsulfanyl-Ala[Gln121,Leu168,Cys181]FGF21 (Q9NSA1 other isoform, or with tags, fused parts or gaps limits assumed): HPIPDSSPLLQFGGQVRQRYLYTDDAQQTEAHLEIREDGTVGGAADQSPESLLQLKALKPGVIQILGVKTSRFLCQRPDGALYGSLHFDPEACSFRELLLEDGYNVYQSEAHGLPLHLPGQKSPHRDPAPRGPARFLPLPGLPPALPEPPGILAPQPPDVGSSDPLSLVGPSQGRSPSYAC
Chain of FGF receptor/BKL complex on HEK293 cells overexpressing human beta-klotho (BKL) (human) (Q86Z14 whole entry, one chain of several): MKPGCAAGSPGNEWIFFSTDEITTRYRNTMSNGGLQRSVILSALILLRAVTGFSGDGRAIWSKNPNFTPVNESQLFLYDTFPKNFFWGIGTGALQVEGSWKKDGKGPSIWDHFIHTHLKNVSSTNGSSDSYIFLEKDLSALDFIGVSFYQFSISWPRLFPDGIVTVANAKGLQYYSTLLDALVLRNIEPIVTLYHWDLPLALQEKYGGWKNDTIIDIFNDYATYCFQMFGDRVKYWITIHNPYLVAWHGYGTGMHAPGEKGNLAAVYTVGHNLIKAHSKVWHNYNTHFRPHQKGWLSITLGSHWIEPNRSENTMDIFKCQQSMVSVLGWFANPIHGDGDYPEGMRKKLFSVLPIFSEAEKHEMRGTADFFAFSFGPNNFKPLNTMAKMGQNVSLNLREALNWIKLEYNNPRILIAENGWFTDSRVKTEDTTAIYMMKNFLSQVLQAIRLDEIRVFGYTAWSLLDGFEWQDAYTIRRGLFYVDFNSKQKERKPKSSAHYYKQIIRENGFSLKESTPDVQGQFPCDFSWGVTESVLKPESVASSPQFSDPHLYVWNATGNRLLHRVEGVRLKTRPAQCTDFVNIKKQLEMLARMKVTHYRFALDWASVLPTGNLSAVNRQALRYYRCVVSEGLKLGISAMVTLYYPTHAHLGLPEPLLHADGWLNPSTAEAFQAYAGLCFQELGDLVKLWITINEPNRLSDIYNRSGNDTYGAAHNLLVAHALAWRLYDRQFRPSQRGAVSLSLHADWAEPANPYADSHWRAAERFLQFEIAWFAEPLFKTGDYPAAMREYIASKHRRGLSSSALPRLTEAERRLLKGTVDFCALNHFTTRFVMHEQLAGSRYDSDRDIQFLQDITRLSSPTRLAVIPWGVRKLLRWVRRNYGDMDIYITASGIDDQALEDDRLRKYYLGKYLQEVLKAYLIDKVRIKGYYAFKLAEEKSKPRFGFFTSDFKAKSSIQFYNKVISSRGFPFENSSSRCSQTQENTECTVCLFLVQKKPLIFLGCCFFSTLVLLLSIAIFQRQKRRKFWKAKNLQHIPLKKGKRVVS

| Substance | EC50 (0.1% HSA) (nM), pERK, HEK293/BKL cells [1] | EC50 (nM), pERK, HEK293/BKL cells [1] | Glucose uptake EC50 (nM), 3T3-L1 adipocytes [2] | Glucose uptake Emax (%), 3T3-L1 adipocytes [2] |
| --- | --- | --- | --- | --- |
| S{Beta-180}-[2-[2-[[2-[2-[2-[[2-[2-[2-[[(4S)-4-carboxy-4-(19-carboxynonadecanoyl-amino)butanoyl]amino]ethoxy]ethoxy]acetyl]amino]ethoxy]ethoxy]acetyl]amino]-ethylamino]-2-oxoethyl]-Ala[Gln121,Leu168,Cys180]FGF21 (from UniProt Q9NSA1 29-209) (ligand) | 133 nM | 5 nM | 24 nM | 53% |
| S{Beta-181}-2-aminoethylsulfanyl-Ala[Gln121,Leu168,Cys181]FGF21 (from UniProt Q9NSA1 29-208) (ligand) | – | 27 nM | 5 nM | 74% |
| S{Beta-181}-[2-[2-[[2-[2-[2-[[2-[2-[2-[[(4S)-4-carboxy-4-(13-carboxytridecanoyl-amino)butanoyl]amino]ethoxy]ethoxy]acetyl]amino]ethoxy]ethoxy]acetyl]amino]-ethylamino]-2-oxoethyl]-Ala[Gln121,Leu168,Cys181]FGF21 (from UniProt Q9NSA1 29-208) (ligand) | 41 nM | 58 nM | 7.2 nM | 55% |
| S{Beta-181}-[2-[2-[[2-[2-[2-[[2-[2-[2-[[(4S)-4-carboxy-4-(15-carboxypentadecanoyl-amino)butanoyl]amino]ethoxy]ethoxy]acetyl]amino]ethoxy]ethoxy]acetyl]amino]-ethylamino]-2-oxoethyl]-Ala[Gln121,Leu168,Cys181]FGF21 (from UniProt Q9NSA1 29-208) (ligand) | 72 nM | 55 nM | 31 nM | 61% |
| S{Beta-181}-[2-[2-[[2-[2-[2-[[2-[2-[2-[[(4S)-4-carboxy-4-(17-carboxyheptadecanoyl-amino)butanoyl]amino]ethoxy]ethoxy]acetyl]amino]ethoxy]ethoxy]acetyl]amino]-ethylamino]-2-oxoethyl]-Ala[Gln121,Leu168,Cys181]FGF21 (from UniProt Q9NSA1 29-208) (ligand) | 170 nM | 42 nM | 56 nM | 73% |
| S{Beta-181}-[2-[2-[[2-[2-[2-[[2-[2-[2-[[(4S)-4-carboxy-4-(19-carboxynonadecanoyl-amino)butanoyl]amino]ethoxy]ethoxy]acetyl]amino]ethoxy]ethoxy]acetyl]amino]-ethylamino]-2-oxoethyl]-Ala[Gln121,Leu168,Cys181]FGF21 (from UniProt Q9NSA1 29-208) (ligand) | 434 nM | 58 nM | 410 nM | 57% |
| {Beta-178}-[2-[2-[[2-[2-[2-[[2-[2-[2-[[(4S)-4-carboxy-4-(15-carboxypentadecanoyl-amino)butanoyl]amino]ethoxy]ethoxy]acetyl]amino]ethoxy]ethoxy]acetyl]amino]-ethylamino]-2-oxoethyl]-Ala[Gln121,Leu168,Cys178]FGF21 (from UniProt Q9NSA1 29-209) (ligand) | 137 nM | 167 nM | 186 nM | 59% |
